Assay results reported in the supplement of paper PMC11908140.

B1: library; numbered along this chain (parent)
chain: MRKPRAAVGSGHRKQAASQEGRQKHAKNNSQAKPSACDGLARQPEEVVLQASVSSYHLFRDVAEVTAFRGSLLSWYDQEKRDLPWRRRAEDEMDLDRRAYAVWVSEVMLQQTQVATVINYYTGWMQKWPTLQDLASASLEEVNQLWAGLGYYSRGRRLQEGARKVVEELGGHMPRTAETLQQLLPGVGRYTAGAIASIAFGQATGVVDGNVARVLCRVRAIGADPSSTLVSQQLWGLAQQLVDPARPGDFNQAAMELGATVCTPQRPLCSQCPVESLCRARQRVEQEQLLASGSLSGSPDVEECAPNTGQCHLCLPPSEPWDQTLGVVNFPRKASRKPPREESSATCVLEQPGALGAQILLVQRPNSGLLAGLWEFPSVTWEPSEQLQRKALLQELQRWAGPLPATHLRHLGEVVHTFSHIKLTYQVYGLALEGQTPVTTVPPGARWLTQEEFHTAAVSTAMKKVFRVYQGQQPGTCMGSKRSQVSSPCSRKKPRMGQQVLDNFFRSHISTDAHSLNSAAQ

Variants of: B1
Test: 8OG:A repair function score (normalized; synonymous = 0, nonsense = -1) (normalized log-likelihood score); higher = more repair activity (WT-like)
Conditions: with 8OG:A DNA repair reporter (GFP) in HEK-293 MUTYH KO cells
Outline: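 Per-tile Rosace fitness scores were converted to a normalized repair function score anchored on synonymous and nonsense distributions. That scale puts synonymous medians at 0 and nonsense medians at -1. Variants with starting counts under 300 counts per million were discarded. Input came from sorting viable mCherry+ MUTYH knockout HEK-293 cells, carrying lentiviral MUTYH cDNA NNN codon-scan libraries in 10 pg/ml doxycycline and an 8OG:A GFP repair reporter, into GFP+ and GFP− bins at 72 h, three replicates per tile, followed by tile amplicon sequencing.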
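Further: cells sorted at 72 h after reporter transfection.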

8OG:A repair function score: each site, then its substitutions
T176: Y -0.16, K -0.0846, I -0.31, H -0.0301, V -0.285, N 0.0341, S -0.0317, G -0.216, C -0.0512, L -0.174, D 0.00933, R -0.102, W -0.419, M -0.28, P -0.429, F -0.157, Q -0.0945, A -0.251, E -0.128
Y190: M -0.762, S -0.22, D -0.858, I -0.823, T -0.419, C -0.373, N -0.443, A -0.38, K -1.27, G -0.381, L -0.851, R -1.06, H -0.198, Q -0.567, P -0.905, W -0.479, V -0.566, E -0.808, F -0.574
L183: A -0.0103, D -0.21, M -0.13, P -0.826, Q 0.0196, R -0.105, K -0.0447, Y 0.0742, G -0.0301, H 0.0988, T -0.0372, S 0.0487, W -0.0703, E -0.0475, N -0.102, F -0.0771, I -0.112, C -0.208, V 0.0213
E178: S -0.037, A 0.0541, L -0.106, Y 0.00398, W -0.0455, V -0.12, I -0.0162, F -0.0911, M 0.0407, D -0.000297, K 0.0383, N 0.0803, P -0.125, C -0.0388, H -0.0501, T 0.0829, Q -0.0318, G -0.126, R 0.0879
A177: E -0.368, G -0.166, L -0.213, T -0.226, C -0.0436, M -0.0819, V -0.207, I -0.142, Q -0.125, S -0.1, H -0.14, F -0.273, N -0.0568, K -0.0185, P -0.0959, W -0.324, R -0.127, D -0.363, Y -0.194
R175: P -0.229, I -0.189, E 0.0279, W -0.356, F -0.197, Q 0.0309, T -0.00924, M -0.155, A -0.0909, K -0.133, H -0.116, V -0.148, L -0.252, G -0.166, C -0.0695, D -0.192, N -0.0345, S -0.0258, Y -0.175
T179: C -0.0042, E -0.0168, F -0.0885, L 0.0629, K 0.0976, G 0.108, D 0.248, P -0.236, H 0.0778, M 0.0538, W -0.0647, S 0.00681, N -0.0369, V -0.0453, Q -0.0228, R 0.0462, Y -0.146, A -0.088, I -0.04
L180: D -1.1, C -0.258, Y -0.571, Q -0.655, F -0.576, I -0.119, V -0.497, H -1.24, W -0.713, T -0.439, G -0.785, P -1.03, K -0.838, N -1.02, R -1.18, E -0.764, S -0.679, A -0.223
T191: C -0.351, A -0.325, V -0.236, Q -0.768, N -0.68, L -0.585, S -0.16, I -0.0338, R -1.16, Y -1.07, G -0.428, E -0.898, K -1.26, P -0.924, M -0.127, D -1.01
